From patent US10138466B2, “Compositions and methods for differentiating stem cells into cell populations comprising beta-like cells” (REGENERATIVE MEDICAL SOLUTIONS, INC., priority 2014, dated 2018)

Test system: hESCs
Test: Activin A alone in serum-free medium, pancreatic cell differentiation
Type: cell-based, human
Settings: Activin A at 5 ng/ml, 50 ng/ml, or 100 ng/ml in serum-free medium
Description: Activin is a member of the TGF-β superfamily and has various effects on diverse biological systems (Abe Y, et al. Growth Factors 2004 June; 22(2):105-10; herein incorporated by reference in its entirety). Activin A has been reported to have a role in the induction of definitive endoderm from hESCs (D'Amour, K. A., et al. (2005); herein incorporated by reference in its entirety).

B1: Activin A: member of the TGF-β superfamily (protein, UniProt P08476 311-426, looked up)
Inhibin beta A chain: GLECDGKVNICCKKQFFVSFKDIGWNDWIIAPSGYHANYCEGECPSHIAGTSGSSLSFHSTVINHYRMRGHSPFANLKSCCVPTKLRPMSMLYYDDGQNIIKKDIQNMIVEECGCS
modifications: Inhibin beta A chain
notes: member of the TGF-β superfamily
induction of pancreatic cell differentiation: cannot induce pancreatic cell differentiation
